The labels stand for the following.
T1: msCLDN18.1
T1 chain: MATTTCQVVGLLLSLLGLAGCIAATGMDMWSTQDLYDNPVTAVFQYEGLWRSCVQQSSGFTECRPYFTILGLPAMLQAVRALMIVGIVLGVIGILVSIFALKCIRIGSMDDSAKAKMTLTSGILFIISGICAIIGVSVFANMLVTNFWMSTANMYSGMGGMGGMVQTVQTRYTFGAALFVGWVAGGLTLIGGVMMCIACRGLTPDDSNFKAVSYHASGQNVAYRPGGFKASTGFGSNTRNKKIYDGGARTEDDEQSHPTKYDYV

B1: anti-Claudin 18.2 scFv-hIgG2Fc, clone 12H6 (Fc fusion)
chain: EVQLVESGGGLVQPGGSLRLSCAASGFTFSRYWMSWVRQAPGKGLEWVANIKHDGSEKYYVDSVKGRFTFSRDNAKTSLYLQMNSLRVEDTALYYCARYYGGPFDYWGQGTLVTVSSGGGGSGGGGSGGGGSGGGGSEIVLTQSPGTLSLSPGERATLSCRASQSVRSSYLAWYQQKPGQAPRLLIFGASSRATGIPDRFSGSGSGTDFTLTISRLEPEDFAVYYCQQFGSSLTFGGGTKVEIK
notes: linker and orientation in the Fc fusion are not restated; not shown: human IgG2 Fc (hIgG2Fc)
B2: anti-Claudin 18.2 scFv-hIgG2Fc, clone 9G2 (Fc fusion)
chain: EVHLLESGGGLVQPWGSLTLSCAASGFTFSNYAMNWVRQAPGKGLEWVSGISGSGGSTYDADSVKGRFTISRDNSKNTLFLQMNSPRAEDTAVYYCATQGYSFGYFESWGQGTLVTVSSGGGGSGGGGSGGGGSGGGGSEIVLTQSPATLSLSPGERATLSCRASQNVNRYLAWYHQKPGQAPRLLIYDAFNRATGIPARFSGSGSGTDFTLTINSLEPEDFAVYYCQQRSDWPLTFGGGTKLEIK
notes: as for B1
B3: anti-Claudin 18.2 scFv-hIgG2Fc, clone 2A10 (Fc fusion)
chain: QVQLQESGPGLVKPSETLSLTCTVSAGSISSYYWNWIRQPAGKGLEWIGRIYTSGSTNYNPSLRSRVTMSVDTSKNQFSLKLSSVTATDTAVYYCASASYTYFDSFDIWGQGTMVTVSSGGGGSGGGGSGGGGSGGGGSDIQLTQSPSFLSASVGDRVTITCRASQDIRNFLAWYQQKPGKAPKLLIYAASTLQSGVPSRFSGSGSGTEFALTVSSLQPEDFATYYCQQVNSYPRTFGQGTKVEIK
notes: as for B1

This test concerns the target T1, msCLDN18.1. As to the kind of experiment: flow cytometry on HEK-293T overexpressing mouse Claudin 18.1; 5 µg/mL scFv-hIgG2Fc, detected with PE anti-human IgG Fcγ. Here is the method: The stained samples were analyzed by flow cytometry.
(In general: In flow cytometry, cells or beads pass a laser one at a time.)
B1: the binding result is recorded as “binds”.

Consider B2, for which the binding result is “binds”.

Regarding B3, the binding result is recorded as “binds”.

The values are drawn from patent US20240216430A1 (ALLOGENE THERAPEUTICS, published 2024).
